Earlier results in publication PMC4976022.

Target: HPr (Escherichia coli) (UniProt P0AA04)

Substance: EIN N-terminal domain (from UniProt P08839)
- Kd: 7 µM
